# In paper PMC12532034 (Cancer immunology research, 2025):
# T1: GST-Rb 379–928 (UniProt P06400 379-928)
# T1 sequence (looked up): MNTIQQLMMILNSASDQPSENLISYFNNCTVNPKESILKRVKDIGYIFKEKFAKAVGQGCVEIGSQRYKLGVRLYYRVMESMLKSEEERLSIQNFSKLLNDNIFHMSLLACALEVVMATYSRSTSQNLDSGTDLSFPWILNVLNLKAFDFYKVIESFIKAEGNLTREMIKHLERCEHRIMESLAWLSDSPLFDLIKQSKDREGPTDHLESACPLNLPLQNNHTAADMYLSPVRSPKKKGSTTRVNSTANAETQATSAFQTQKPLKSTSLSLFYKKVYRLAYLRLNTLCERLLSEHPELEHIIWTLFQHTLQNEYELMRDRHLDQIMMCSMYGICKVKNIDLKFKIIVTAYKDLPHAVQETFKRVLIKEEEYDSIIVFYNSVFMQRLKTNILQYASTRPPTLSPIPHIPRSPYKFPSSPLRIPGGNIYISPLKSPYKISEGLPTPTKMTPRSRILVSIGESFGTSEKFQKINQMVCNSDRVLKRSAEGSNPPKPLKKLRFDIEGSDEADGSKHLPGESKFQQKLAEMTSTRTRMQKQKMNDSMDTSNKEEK
# Molecular target: T1, GST-Rb 379–928
# Assay: AlphaScreen or HTRF
binder,measurement,value
MBP-E2F1 (natural protein) not shown,binding result,binds
